The record followed here is patent US20190062438A1 (CSL, published 2019).

Changes are numbered by the printed parent chain.

Sequences and labels used below:
T1: human CD131 (human, UniProt P32927 17-897)
T1 sequence: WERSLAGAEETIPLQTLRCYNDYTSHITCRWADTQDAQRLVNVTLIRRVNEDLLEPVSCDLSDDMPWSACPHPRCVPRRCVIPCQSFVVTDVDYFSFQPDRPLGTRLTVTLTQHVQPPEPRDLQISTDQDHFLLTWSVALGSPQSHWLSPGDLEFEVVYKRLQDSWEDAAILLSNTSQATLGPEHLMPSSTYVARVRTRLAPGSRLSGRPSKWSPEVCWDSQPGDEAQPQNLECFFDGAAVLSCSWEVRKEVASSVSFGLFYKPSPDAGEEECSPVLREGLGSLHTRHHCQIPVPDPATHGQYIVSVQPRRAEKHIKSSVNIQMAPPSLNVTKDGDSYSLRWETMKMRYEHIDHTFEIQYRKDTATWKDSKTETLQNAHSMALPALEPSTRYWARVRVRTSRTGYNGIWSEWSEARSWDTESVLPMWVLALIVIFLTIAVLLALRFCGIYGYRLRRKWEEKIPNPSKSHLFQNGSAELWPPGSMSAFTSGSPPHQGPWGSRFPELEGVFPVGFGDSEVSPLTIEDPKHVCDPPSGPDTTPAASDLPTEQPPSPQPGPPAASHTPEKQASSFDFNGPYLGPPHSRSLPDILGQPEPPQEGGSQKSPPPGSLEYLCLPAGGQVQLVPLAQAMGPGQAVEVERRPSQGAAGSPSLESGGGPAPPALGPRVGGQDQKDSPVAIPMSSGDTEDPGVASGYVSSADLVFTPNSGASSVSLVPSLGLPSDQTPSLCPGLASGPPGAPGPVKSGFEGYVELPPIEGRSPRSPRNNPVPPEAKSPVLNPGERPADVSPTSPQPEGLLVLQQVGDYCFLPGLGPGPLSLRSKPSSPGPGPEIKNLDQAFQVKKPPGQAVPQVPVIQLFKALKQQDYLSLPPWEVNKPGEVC

T2: soluble Homo sapiens CD131 comprising a C-terminal 6xHis tag (human, UniProt P32927 17-438)
T2 construct: truncated after Ser438, C-terminal 6xHis; also called shCD131; shβc
T2 sequence: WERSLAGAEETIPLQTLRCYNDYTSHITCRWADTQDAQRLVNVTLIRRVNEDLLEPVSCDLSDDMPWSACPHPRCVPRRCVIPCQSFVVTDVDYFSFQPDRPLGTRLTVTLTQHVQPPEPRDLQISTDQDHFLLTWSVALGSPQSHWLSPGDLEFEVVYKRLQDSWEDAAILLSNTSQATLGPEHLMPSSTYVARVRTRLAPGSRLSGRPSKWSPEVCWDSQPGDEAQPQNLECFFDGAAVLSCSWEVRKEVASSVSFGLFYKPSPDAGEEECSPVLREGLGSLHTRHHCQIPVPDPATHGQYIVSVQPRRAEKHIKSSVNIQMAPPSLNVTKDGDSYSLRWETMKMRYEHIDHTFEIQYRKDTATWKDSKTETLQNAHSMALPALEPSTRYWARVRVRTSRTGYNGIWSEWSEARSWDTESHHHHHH

B1: 9A2-VR39.77 (antibody, V domains shown)
VH: EVQLLESGGGLVQPGGSLRLSCAASGFTFSHYHMLWVRQAPGKGLEWVSSINGRGRVTYYQWPMNKRFTISRDNSKNTLYLQMNSLRAEDTAVYYCARFYDSFFDIWGQGTMVTVSS
VL: DIQMTQSPSSVSASVGDRVTITCRASQGISSWLAWYQQKPGKAPKLLIYAASSLQSGVPSRFSGSGSGTDFTLTISSLQPEDFATYYCQQANSFPITFGQGTRLEIKR
B2: 9A2-VR39.122 (antibody, V domains shown)
VH: EVQLLESGGGLVQPGGSLRLSCAASAGFFEYYHMLWVRQAPGKGLEWVSSINGRGRVTYYADSVKGRFTISRDNSKNTLYLQMNSLRAEDTAVYYCARFYDSFFDIWGQGTMVTVSS
VL: B1 VL
B3: 9A2-VR39.140 (antibody, V domains shown)
VH: B2 VH with G27Y, F28S, F29E, E30M, Y31W
VL: B1 VL
B4: 9A2-VR39.109 (antibody, V domains shown)
VH: B2 VH with A26G, G27F, F28T, E30M, Y31W, M34H, L35I
VL: B1 VL
B5: 9A2-VR39.148 (antibody, V domains shown)
VH: B1 VH with Y59H, Y60V, Q61A, W62Q, P63E, M64V, N65K, K66G
VL: B1 VL
B6: 9A2-VR39.24 (antibody, V domains shown)
VH: B2 VH with A26G, G27F, F28T, E30H, Y31H, Y32F, M34V, L35I
VL: B1 VL
B7: 9A2-VR39.27 (antibody, V domains shown)
VH: B2 VH with A26R, G27T, F28S, E30M, Y31W
VL: B1 VL
B8: 9A2-VR39.112 (antibody, V domains shown)
VH: B2 VH with A26G, G27F, F28T, E30P, M34Q, L35V
VL: B1 VL
B9: 9A2-VR39.22 (antibody, V domains shown)
VH: B2 VH with A26G, G27F, F28T, E30Q, Y31W, M34V, L35I
VL: B1 VL
B10: 9A2-VR39.162 (antibody, V domains shown)
VH: B1 VH with T58P, Y59Q, Y60M, Q61A, W62Q, P63E, M64V, N65K, K66G
VL: B1 VL
B11: 9A2-VR39.98 (antibody, V domains shown)
VH: B2 VH with A26G, G27F, F28T, Y31H, M34T, L35I
VL: B1 VL
B12: 9A2-VR39.111 (antibody, V domains shown)
VH: B2 VH with A26G, G27F, F28T, E30P, Y31W, Y32F, M34F, L35V
VL: B1 VL
B13: 9A2-VR39.116 (antibody, V domains shown)
VH: B2 VH with A26G, G27F, F28T, E30P, Y31W, Y32F, H33V, L35V
VL: B1 VL
B14: 9A2-VR39.103 (antibody, V domains shown)
VH: B2 VH with A26G, G27F, F28T, E30Q, Y31H, Y32F, M34W, L35V
VL: B1 VL
B15: 9A2-VR39.105 (antibody, V domains shown)
VH: B2 VH with A26G, G27F, F28T, E30P, L35I
VL: B1 VL
B16: 9A2-VR39.110 (antibody, V domains shown)
VH: B2 VH with A26G, G27F, F28T, E30V, Y31W, M34H, L35I
VL: B1 VL
B17: 9A2-VR39.28 (antibody, V domains shown)
VH: B2 VH with A26R, F28A, F29P, E30M, Y31W
VL: B1 VL
B18: 9A2-VR39.139 (antibody, V domains shown)
VH: B2 VH with A26P, G27R, F28W, F29E, E30W, Y31N
VL: B1 VL
B19: 9A2-VR39.23 (antibody, V domains shown)
VH: B2 VH with A26G, G27F, F28T, E30H, Y31H, M34T, L35V
VL: B1 VL
B20: 9A2-VR39.97 (antibody, V domains shown)
VH: B2 VH with A26G, G27F, F28T, E30P, Y31W, Y32F, M34F, L35V
VL: B1 VL
B21: 9A2-VR39.102 (antibody, V domains shown)
VH: B2 VH with A26G, G27F, F28T, E30Q, Y31W, Y32F, M34Y, L35I
VL: B1 VL
B22: 9A2-VR39.46 (antibody, V domains shown)
VH: B2 VH with A26D, G27V, F28D, E30G, Y31W
VL: B1 VL
B23: 9A2-VR39.24 Fab (Fab, V domains shown)
VH: B2 VH with A26G, G27F, F28T, E30H, Y31H, Y32F, M34V, L35I
VL: B1 VL
notes: recombinant Fab
B24: 9A2-VR39.110 Fab (Fab, V domains shown)
VH: B2 VH with A26G, G27F, F28T, E30V, Y31W, M34H, L35I
VL: B1 VL
notes: recombinant Fab
B25: 9A2-VR39.177 Fab (Fab, V domains shown)
VH: B1 VH with Q61A, W62L, P63E, M64Y, N65K
VL: B1 VL
notes: recombinant Fab
B26: 9A2-VR39.109 Fab (Fab, V domains shown)
VH: B2 VH with A26G, G27F, F28T, E30M, Y31W, M34H, L35I
VL: B1 VL
notes: recombinant Fab
B27: 9A2-VR39.93 Fab (Fab, V domains shown)
VH: B1 VH with Q61N, W62P, P63A, M64W, N65K
VL: B1 VL
notes: recombinant Fab

The target of the first assay is T1, human CD131. Kind of assay: cell-based or functional assay.
As for B1, the “IC50 GM-CSF, TF-1 proliferation” value turned out to be 2.03 nM. The same measure, in the same setting: for B2 the value was 15 nM. Still for that read-out and setting: under B3 stands 42.5 nM; under B4, 0.24 nM; under B5, 1.12 nM. On the same count and under the same terms, under B6 stands 0.42 nM; under B7, 17.9 nM; under B8, 1 nM. For B9, the “IC50 GM-CSF, TF-1 proliferation” value was 0.5 nM. The same measure, in the same setting: under B10 stands 3.6 nM; under B11, 1.44 nM; under B12, 0.99 nM.

Consider B13, for which the “IC50 GM-CSF, TF-1 proliferation” value came out at 7.93 nM. On the same count and under the same terms, under B14 stands 5.14 nM; under B15, 0.53 nM.

As for B16, the “IC50 GM-CSF, TF-1 proliferation” value was determined as 0.28 nM. On the same count and under the same terms, under B17 stands 57.2 nM; under B18, 21.5 nM; under B19, 0.9 nM. For B20, the “IC50 GM-CSF, TF-1 proliferation” value is 0.92 nM.

On to B21, for which the “IC50 GM-CSF, TF-1 proliferation” value stood at 2.29 nM. The same measure, in the same setting: under B22 stands 3.34 nM.

For another assay, the target named is T2, soluble Homo sapiens CD131 comprising a …. The assay can be described thus: SPR, Fab over captured shCD131. Here is the method:
Binding kinetics were measured using SPR with a BIAcore™ A-100 instrument (GE Healthcare Life Sciences). An anti-C-terminal Hexa-His antibody (3H3) was immobilized on spots 1, 2, 4 and 5 of each flow cell of a CM-5 sensor chip (GE Healthcare Life Sciences) using amine-coupling chemistry (116). […] As shβc is a dimer, kinetics assays were performed with shβc captured on the sensor surface, and purified Fab injected as the analyte. Avidity effects were avoided by the use of Fab rather than whole IgG.
shCD131 was captured on spots 1 and 5 of each flow cell for 2 minutes at a concentration of 0.4 μg/ml. […] For some analysis purified Fab was injected over each flow cell for 3 minutes and dissociation was monitored for a further 10 minutes. Regeneration of the surface was performed after each cycle with a 40 second injection of 25 mM glycine, pH 2.0. The analysis was performed with Fabs at several concentrations between 100 and 0.31 nM, with each concentration analyzed twice and in random order. The analysis was performed at a flow rate of 30 μl/min in HBS-EP buffer (10 mM Hepes, 150 mM NaCl, 3 mM EDTA, 0.005% Tween 20, pH 7.4) at 37° C. Responses from spots 2 and 4 of each flow cell, (in which shβc was not captured, but otherwise treated identically), were subtracted from those of spots 1 and 5 respectively to produce reference subtracted data. Reference subtracted responses from a blank injection comprising buffer alone were subtracted from the resultant sensorgrams to produce double referenced data suitable for kinetic analysis. Double-referenced sensorgrams were fitted using non-linear regression to a model describing 1:1 kinetics, including a term for mass transport limitation. The Rₘₐₓ value was fitted locally to account for slight deviations in the level of sCD131 captured, with association rate (kₐ), dissociation rate (kd) and equilibrium dissociation constant (KD) fitted globally.
(In general: SPR reads the build-up and loss of mass on a sensor chip optically.)
A word on the Kd: it is the constant that tells how readily two partners part at equilibrium. A higher Kd goes with weaker binding. The koff is a measure of how fast the partners let go of each other. Read a low koff as slow dissociation. The kon is the rate constant with which the complex forms. Low readings indicate slower complex formation, high ones faster complex formation. Turning to B23, the dissociation constant Kd was 0.169 nM, the off-rate (koff) worked out at 0.0005 s⁻¹ and the kon came out at 2.96e+06 M⁻¹ s⁻¹. The molecule B24 displayed a Kd of 0.11 nM, a dissociation rate constant (koff) of 0.00039 s⁻¹ and a kon of 3.8e+06 M⁻¹ s⁻¹.

In turn, B25 showed a Kd of 0.15 nM, a dissociation rate constant (koff) of 0.000554 s⁻¹ and a kon of 3.69e+06 M⁻¹ s⁻¹. The corresponding values for B26 are 0.098 nM, 0.00033 s⁻¹ and 3.4e+06 M⁻¹ s⁻¹.

Turning to B27, binding was characterised by a dissociation constant (Kd) of 0.171 nM, the koff turned out to be 0.00071 s⁻¹ and the kon came to 4.15e+06 M⁻¹ s⁻¹.
